Assay results: the DeepSol protein solubility set

Assay: soluble on expression in E. coli; label from the status in PepcDB or PDB records

Sequence	soluble on expression in E. coli
MAHHHHHHMAARTDDPRLLSLFSAQREEDADIVIIGFPYDEGCVRNGGRAGAKKGPAAFRFFLQRLGSVNNLELNVDASHLKLYDAGDITASTLEEAHEKLESKVFTVLARGAFPFVIGGGNDQSAPNGRAMLRAFPGDVGVINVDSHLDVRPPLQDGRVHSGTPFRQLLEESSFSGKRFVEFACQGSQCGALHAQYVRDHQGHLMWLSEVRKKGAVAALEDAFGLTGKNTFFSFDVDSLKSSDMPGVSCPAAVGLSAQEAFDMCFLAGKTPTVMMMDMSELNPLVEEYRSPRVAVYMFYHFVLGFATRPKPKAEN	soluble
MSLSKIKSVRTRVWNWTGPTVPPTGNFCTNASDVLWDKGDAMSSFRFHQWLTCEVETDDGTIGIGNAALAPTVVKKAIDDWFAPMVIGEDPFDYAYLWEKMYRRSHAWGRKGIGMTAISAVDLAIWDLMGKLTGKPVFKLLGGRTKEKIPVYYSKLYSGPIDTMQAEAEEARKNNYPGYKMRFGWGPKDGMAGMRENLKRVEAVREVIGYDVDLMLECYQGWNLDYTKRMLPKLVKYEPRWLEEPVIADDVEGYRELNAMNIVPISGGEHEFSVIGCKDLIEKKAVSVLQYDTNRVGGITAAQKINAIAEAFQVPVIPHAGQMHNYHLTMANANCMISEYFPVFDVEVGNELFYYIFEGDPAAVDGFLDLDDNIPGLGISITDKYLKHFEIQEEGHHHHHH	soluble
MGSDKIHHHHHHVPKNKDSKNNSIPRRRFGRTEIQIPVLSLGGMRFQQSWKDLDPKEINNQQQEILQKTISYAAQKGMHHIETARHYGTSERQIGWAFDQIDDPKRILQTKVPPNNDPSIFEQELELSMSRLGSKKIDLLAIHGINLPEHLDMTIRPNGCLQIVRRWQKDGLIGHVGFSTHANVDLIIKTIETGFFDYVNLHWYFIRQENEKALQAADANDLGVFIISPTDKGGHLHTPSLKLLDLCSPLHPIEFNDLFCLRDKRIHTLSVGASSPEDLDIHLSAISKMDTMHGVINTIEKRLINASYKSLGESWLTTWNIGLPRWDQTPGEINIPTLLWLNNLLEAWDMESFVKDRYGLLGRGGHWFPGANADCLDCEVSEDDLKKVLINSPWSSEIPSVLRKLKDRLGGERRDRLWGI	not soluble
MAHHHHHHMGDNIEKRYSLALYNVGKKNKKINEITSDILFIKNNFLKDKSFLNFLHTPNIESREKLNFLKTECKKYNNNFSPITSNFLESLFDSKRIKFLQKIIEEFELLLMKERKEIKCVVYTAKEINNNEKQKIQESILFKLKNELKPLIEYKIDKSILGGLVLQIGNQVFDFSAKYKIEKIRSTLS	not soluble
MSLSNYISIKGAKVNNLKNIDVNIPRNKLVVITGLSGSGKSSLAFDTLYAEGQRRYVESLSSYARQFLGRMSKPECDFIKGIPPAIAIEQKVNSRNPRSTVGTSTEIYEYLRLLYARVGKTYSPISGQLVKKHSIEDIVNCMLSFPKGTKYTVLTPMMPREGRTLLQQLEMDLKQGFTRIEVNREIVRIEDFLQQTAAEDKKQNIYLLVDRMTADDSKDSISRLTDSAETAMYEGDGNCLLRFYSADGSTQLFSFSTKFETDGIKFEEPNDQMFSFNSPLGACPECEGFGKVIGIDEHLVIPNRALSVYDGAVLCWRGEKMGEWLQEFIHEAPAHDFPIFAPYYELTQEQKDYLWHGPRNKACIDSFFKMLEENQYKIQYRVMLARYRGKTICPVCHGTRLKKEAGYVKVGGKSISQLVDLPIHDLKEFFRTLELDAHDTAIAKRILTEITNRINFLMDVGLGYLTLNRLSNSLSGGESQRINLATSLGSSLVGSLYILDEPSIGLHSRDTDRLIKVLRQLQELGNTVVVVEHDEEIIRAADYIIDIGPQAGRLGGQIVYQGNMNDLQRNEGHHHHHH	soluble
MRIFAVFIFMTYWHLLNAFTVTVPKDLYVVEYGSNMTIECKFPVEKQLDLAALIVYWEMEDKNIIQFVHGEEDLKVQHSSYRQRARLLKDQLSLGNAALQITDVKLQDAGVYRCMISYGGADYKRITVKVNAPYNKINQRILVVDPVTSEHELTCQAEGYPKAEVIWTSSDHQVLSGKTTTTNSKREEKLFNVTSTLRINTTTNEIFYCTFRRLDPEENHTAELVIPELPLIEGRSRGSGLNDIFEAQKIEWHHHHHHHH	soluble
GSHMVGPTYSTAVLNCLKNLDLWCFDVFSLNQAADDHALRTIVFELLTRHNLISRFKIPTVFLMSFLDALETGYGKYKNPYHNQIHAADVTQTVHCFLLRTGMVHCLSEIELLAIIFAAAIHDYEHTGTTNSFHIQTKSECAIVYNDRSVLENHHISSVFRLMQDDEMNIFINLTKDEFVELRALVIEMVLATDMSCHFQQVKTMKTALQQLERIDKPKALSLLLHAADISHPTKQWLVHSRWTKALMEEFFRQGDKEAELGLPFSPLCDRTSTLVAQSQIGFIDFIVEPTFSVLTDVAEKSVQPLADEDSKSKNQPSFQWRQPSLDVEVGDPNPDVVSFRSTWVKRIQENKQKWKERAASGITN	soluble
MRILVVRHGLPEDPRCFAYDPVQRLIAIGTGRGHIRIIGDAGVDYLLKHESGEPVLHMQFLVNEGGLITSCGTDSIHLWNYRQKTAEIVHTVQLSKESVSCIHLPVAGKWLFIGTDKGNVYFLCLNSFLLSPYVINWNKAIDLSCRVHPGPVRQLAVSPAENTKLLIVYDKGIVVQWNLGTREVDRYPLDPPIKSVNWHFDGRQILTGNVDGSISLYNHKKSTEAIQRTTPHGSGPCRPIQQVEWKHMSETESIIMFSGGMPTDDGLPMPALTILKGGKSATVLEMDWPIIQFIPLNQNIWNSIPQCPHSVAVLLKHDFMVLDLNQNGHPVIESPHAMNIHESPVTCMAYYSDCPLDLIGALTLVGTKQRNKEFSARSWPVTGGLGRECATGHQELVVTGHKDGSLKFWQETGEHLQILYKLKSSSHFERLEEMETSDKVSHAVKYIELCLESRQLLVAGISGQVTLFRFTKQEICGTIAVVNIPLLGNLSSNLPNNDFDKSPVPNGPGKEIRRQRKIVSRESTNSLDTSDSGDERIVPFKVRGAPVKRPPGFVPELACFVPWHSHAKVDQITTICLNSSYGIIAIGTSSGLALVDTTQCALIYSWTTNELYGSDPTPAIQLSMQLSDAASPLEIDEFENDDTLIYNTDTGNYTLRSTRNSLTPSSNGFLHPGEMPTRPKSAANSSNKSGGMMGLFRRNTAELAATIRERYQGNRSESATTDRPDVEHRGETPPPTPNEGNKVQKAGRSHSVKGSFIRRFAKSSSSKEKKEVKIEVDNQSNSGIERSRSFHSHISEEGDSQRESPSSGRQLNTSSPSTSSQSLERSMSTQPQESITSLSFIHSYSKKNDSKMSPCLWVGTSAGASLALNLILPEDRFTSTIVVAPSGTVVRLKGQVISQSFMDNTFCIISPASESYKEAAKEQSATSPDRSLLNRVNTKASLAPQYSSSIDSNDEISQILIVAAENEVKVVALPTFSQLYVQKFDEIPLVKATPTHIRGYPCLMCLSAAGQIIMLSLPSLRILQTSTIFPHSVEIDDPLCQKTAFSDHGLGVYMASQTEMEKYTMCSEIAEQTGESLGELFVPCEMPEQPKNNSFLKGVSSIFGGTPRNDPNDIDAILSENMGVKNSSGVNPMRSVARTIPGPSVQMDRAQAGGVSAGQAAAMALQNLNERTEKLNATVDATENLKNNAMSLSSRTGKLVEKYEKKKWYNF	not soluble
MKIKYFFIPLFSSAILFSACSSIQSDLRNLIKETTGKDFDVSKLIKTSEGRKNLINSLKKSYESKPDETASLLLIAWKQSAEMGEIGFDDIKEGGIYTRDNDPFKLEQKVEYFNMEYKILVMF	soluble
AGLKLMGAPVKLTVSQGQPVKLNCSVEGMEEPDIQWVKDGAVVQNLDQLYIPVSEQHWIGFLSLKSVERSDAGRYWCQVEDGGETEISQPVWLTVEGVPFFTVEPKDLAVPPNAPFQLSCEAVGPPEPVTIVWWRGTTKIGGPAPSPSVLNVTGVTQSTMFSCEAHNLKGLASSRTATVHLQ	soluble
MGSDKIHHHHHHMRERAAVPPRAVQHSDDVAMVLRMDQPDFIQITDDAVSRDDCAAIVQRMRDSQQLQPGRIGSGVFPDLKHSRDLRISGLADWAAVENRLQQAVFEGLLRYLRQYPQALISPLMLQVTTADGTPHRLVAEDIAQMSDAALSDLARTCLRPGAINLQWYLADQGGYPYWHCELYPRDAGAETLHRHLLWTLYLNEEFEQGETEFLFQQRKARPRTGSLLIAPTAFTHTHRGNRPVGGDKFIATSWILFQSAQALYGGE	not soluble
MGSDKIHHHHHHMKIIHVIASIDPKHGGLQAVAMRLAAAQAGLGLDVNIVSYGDAAIEAQVKEIGRSIPHFENIHWHLLPPAGRLETLFCFRGRRMLKALLKDASFMHIHGVWEPFLLYASKLARAAGVPYCICPAGMLDHWSLGQRSWKKKIALMLCYRRMLNEAAFLHLLNVDEMAAVETLNFQARNLIIPNGVFAEEFDPLPARGHFRQKIALAHGRRYILFLSRLHIKKGIDILASAFAAICETYVDVDLVVAGPPGGAEGHFMHLVKKLNIRHRVFMVGAIYGKAKLEAMVDADCFCLPSRQEGFSMAITEALACGTPVVITDQCHFPEVGSADAGLIVSVDAAEVAKALASMLGNPARARTMGENGRRLVLEKFTWPAIAHATLEGYRLSALEAAAS	not soluble
GMTRIASHRGGTLEFGDSTPHGFTATAAMALEEVEFDLHPTADGAIVVHHDPTLDATTDMTGAIVDMTLAKVKTATIRYGAGSHPMTLEELCALYVDSHVNFRCEIKPGVDGLPYEGFVALVIAGLERHSMLERTTFSSFLLASMDELWKATTRPRLWLVSPSVLQQLGPGAVIETAIAHSIHEIGVHIDTADAGLMAQVQAAGLDFGCWAAHTPSQITKALDLGVKVFTTDRPTLAIALRTEHRMEASV	soluble
MASKDAQVTLSRGEQSVKRIKEFNPKKDNFSILLMGIDARPGQSMDKERSDAMVLATFNRKDKSVKLLSIPRDSYVNIPGRGYDKITHAHSLGGRDLSTETVENLLDIPVDYVMEANFSAFKEVVDELGGVPITIKEDYIVRQIKKDTKGKVNLQTGEQTLGGEEALAYVRTRKADTDLKRGERQMEVIKSIINKSKSLTSIPAYDDILDTVGKNVSMNLSLNDAIGLIPFMTSIQTVDTLQLKGSDYQPGKVYYFQLDQENLNEIKQELKQQLDVLEHHHHHH	soluble
HPWQRASVWAEILPSILFRTDFTNAQDEPDEMSSKLHRRSSFQPAFQVGVAYRVSDHMGIEAHAGYQLGEAVYHLMEETSTWSIIKKRATVPYRGFEFAVGLQFYPFR	not soluble
MRGVVGVLALQGDFREHKEALKRLGIEAKEVRKKEHLEGLKALIVPGGESTTIGKLAREYGIEDEVRKRVEEGSLALFGTCAGAIWLAKEIVGYPEQPRLGVLEAWVERNAFGRQVESFEEDLEVEGLGSFHGVFIRAPVFRRLGEGVEVLARLGDLPVLVRQGKVLASSFHPELTEDPRLHRYFLELAGV	soluble
AKLGAVYTEGGFVEGVNKKLGLLGDSVDIFKGIPFAAPTKALENPQPHPGWQGTLKAKNFKKRCLQATITQDSTYGDEDCLYLNIWVPQGRKQVSRDLPVMIWIYGGAFLMGSGHGANFLNNYLYDGEEIATRGNVIVVTFNYRVGPLGFLSTGDANLPGNYGLRDQHMAIAWVKRNIAAFGGDPDNITLFGESAGGASVSLQTLSPYNKGLIRRAISQSGVALSPWVIQKNPLFWAKKVAEKVGCPVGDAARMAQCLKVTDPRALTLAYKVPLAGLEYPMLHYVGFVPVIDGDFIPDDPINLYANAADIDYIAGTNNMDGHIFASIDMPAINKGNKKVTEEDFYKLVSEFTITKGLRGAKTTFDVYTESWAQDPSQENKKKTVVDFETDVLFLVPTEIALAQHRANAKSAKTYAYLFSHPSRMPVYPKWVGADHADDIQYVFGKPFATPTGYRPQDRTVSKAMIAYWTNFAKTGDPNMGDSAVPTHWEPYTTENSGYLEITKKMGSSSMKRSLRTNFLRYWTLTYLALPTVT	soluble
MMDKNQLEQEFHKAMLNIYQEALNLPQPYKATRFLQIVNEFGGKEAADKLLSTGEKKTQTGFTELILSGGGVHALKYSMEYLVLQKPWCDLFTEEQLAVARKRLERVGFVFPK	not soluble
